The target of assay [1] is T1, human MCH-1R (human, UniProt Q99705 1-353). The experiment in a line: SPA, total against non-specific binding (500 nM unlabeled hMCH).
Assay [2] concerns the target T2, human MCH-2R (human, UniProt Q969V1 1-340). The description is as above.
The target of assay [3] is T1, human MCH-1R. The assay is described as follows: cell-based or functional assay.
Assay [4] has as its target T2, human MCH-2R. The assay is described as follows: cell-based or functional assay.
Assay [5] addresses T1, human MCH-1R. The assay is described as follows: ratio of the two SPA IC50s.
In assay [6] the target is T2, human MCH-2R. The experiment in a line: SPA, displacement of [125I]-[Phe13,Tyr19]-hMCH, MCH-2R membranes. The method, then: (§1) After equilibrating at room temperature for 3 hours, the plates were read in a TopCount (Packard, Meriden, Conn.). IC₅₀ calculations were performed using Prism 3.0 (GraphPad. Software, San Diego, Calif.). The IC₅₀ values were measured in three different experiments.
For orientation: Loss of bound radioactivity is the signal in a displacement assay; it reports binding, not function.

Assay [7] addresses T1, human MCH-1R. The assay is described as follows: SPA, displacement of [125I]-[Phe13,Tyr19]-hMCH, CHO/MCH-1R membranes. The method, then: as §1
Assay [8] deals with T1, human MCH-1R. The experiment in a line: cell-based or functional assay. The source holds these as a separate data set.
Assay [9] addresses T2, human MCH-2R. The experiment in a line: cell-based or functional assay. This is another data set of the same source.
Assay [10] deals with T1, human MCH-1R. The assay is described as follows: ratio of the two SPA IC50s.
Assay [11] has as its target T2, human MCH-2R. The experiment in a line: SPA, displacement of [125I]-[Phe13,Tyr19]-hMCH, MCH-2R membranes.
Assay [12] deals with T1, human MCH-1R. The experiment in a line: SPA, displacement of [125I]-[Phe13,Tyr19]-hMCH, CHO/MCH-1R membranes.
In assay [13] the target is T1, human MCH-1R. The experiment in a line: cell-based or functional assay. The source holds these as a separate data set.
In assay [14] the target is T2, human MCH-2R. The experiment in a line: cell-based or functional assay. This is another data set of the same source.
Assay [15] concerns the target T1, human MCH-1R. The experiment in a line: cell-based or functional assay. The source holds these as a separate data set.
Assay [16] deals with T2, human MCH-2R. The experiment in a line: cell-based or functional assay. This is another data set of the same source.
Assay [17] deals with T1, human MCH-1R. The experiment in a line: SPA radioligand binding assay. The method, then:
as §1

Assay [18] concerns the target T2, human MCH-2R. The assay is described as follows: SPA radioligand binding assay. How it is done:
as §1

Assay [19] has as its target T1, human MCH-1R. The assay is described as follows: ratio of the two SPA IC50s. The source holds these as a separate data set.
Assay [20] concerns the target T2, human MCH-2R. The experiment in a line: SPA, displacement of [125I]-[Phe13,Tyr19]-hMCH, MCH-2R membranes. How it is done:
as §1
This is another data set of the same source.

The target in assay [21] is T1, human MCH-1R. The experiment in a line: SPA, displacement of [125I]-[Phe13,Tyr19]-hMCH, CHO/MCH-1R membranes. The method, then: as §1
The source holds these as a separate data set.

Read-outs that look alike come from different tables or passages of the source. Positions of bridges follow the written chain, without caps; N, C: chain ends. Non-standard residues stand in square brackets, D forms with d. No end group written: not given here. Nle = CCCC[C@H](N)C(=O)O

T2 sequence (Q969V1 whole entry): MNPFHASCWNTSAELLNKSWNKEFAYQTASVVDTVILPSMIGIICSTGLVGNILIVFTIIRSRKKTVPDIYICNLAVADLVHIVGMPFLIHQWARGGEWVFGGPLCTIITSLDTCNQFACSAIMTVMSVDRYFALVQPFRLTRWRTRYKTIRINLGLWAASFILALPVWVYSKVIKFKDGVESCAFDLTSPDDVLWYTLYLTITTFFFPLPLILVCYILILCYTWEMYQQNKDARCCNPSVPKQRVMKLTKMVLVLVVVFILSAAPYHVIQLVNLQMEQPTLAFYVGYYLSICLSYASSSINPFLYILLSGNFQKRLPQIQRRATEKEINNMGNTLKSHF
T1 sequence (Q99705 whole entry): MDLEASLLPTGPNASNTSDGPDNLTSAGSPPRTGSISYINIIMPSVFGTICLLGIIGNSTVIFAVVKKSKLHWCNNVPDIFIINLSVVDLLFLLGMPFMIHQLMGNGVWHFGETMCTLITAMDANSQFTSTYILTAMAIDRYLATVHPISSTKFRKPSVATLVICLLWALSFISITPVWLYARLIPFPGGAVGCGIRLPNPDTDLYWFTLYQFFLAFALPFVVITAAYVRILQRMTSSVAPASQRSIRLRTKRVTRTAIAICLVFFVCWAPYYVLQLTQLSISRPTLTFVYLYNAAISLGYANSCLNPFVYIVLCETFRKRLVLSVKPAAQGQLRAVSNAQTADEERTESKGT

Turning to [^125I]-[Phe^13Tyr^19]-hMCH (peptide), the values for the specific binding window with human MCH-1R [1] and with human MCH-2R [2] were above 6 × and 3 ×, respectively.

What is called IC50 is the concentration that inhibits the measured activity by half. As to Ac-RCMLARVYRPC-NH2 (disulfide 2-11 (inferred)) [SEQ. ID. NO. 16 (Ala^10 analog of Ac-hMCH(6-16)-NH2)], the “Activation %, aequorin bioluminescence” value worked out at 121% with human MCH-1R [3] and 102% with human MCH-2R [4]. The “EC50, aequorin bioluminescence” value was 51 nM with human MCH-1R [3] and 15 nM with human MCH-2R [4]. In addition, the “Selectivity 2/1 (MCH-2R/MCH-1R EC50 activity ratio)” value with human MCH-1R [3] is 0.29 ratio. Besides, the “Selectivity 2/1 (MCH-2R/MCH-1R IC50 ratio)” value with human MCH-1R [5] stood at 16 ratio. Besides, the IC50 with human MCH-2R [6] is 7 nM; with human MCH-1R [7] it was 0.44 nM.

In the case of Ac-RCMLLRVYRPC-NH2 (disulfide 2-11 (inferred)) [SEQ. ID. NO. 17 (Leu^10 analog of Ac-hMCH(6-16)-NH2)], in the assay with human MCH-1R [3], the “Activation %, aequorin bioluminescence” value was 123%; the “EC50, aequorin bioluminescence” value was found to be 32 nM; the “Selectivity 2/1 (MCH-2R/MCH-1R EC50 activity ratio)” value stood at 1.8 ratio. Besides, in the assay with human MCH-2R [4], the “Activation %, aequorin bioluminescence” value is 74% and the “EC50, aequorin bioluminescence” value was 57 nM. In addition, in the assay with human MCH-1R [5], the “Selectivity 2/1 (MCH-2R/MCH-1R IC50 ratio)” value was 1900 ratio. For the same molecule, the IC50 with human MCH-2R [6] came to 27 nM. The IC50 with human MCH-1R [7] turned out to be 0.03 nM.

[dR]C[Nle]LNRVYRPC-NH2 (disulfide 2-11 (inferred)) [SEQ. ID. NO. 32 (ΔAc, D-Arg^6, Nle^8, Asn^10 analog of Ac-hMCH(6-16)-NH2)]: the Activation %, aequorin bioluminescence with human MCH-1R [8] was 130%; in the assay with human MCH-2R [9], 53%. The EC50, aequorin bioluminescence was 350 nM with human MCH-1R [8] and 1470 nM in the assay with human MCH-2R [9]. For the same molecule, the Selectivity 2/1 (MCH-2R/MCH-1R EC50 activity ratio) with human MCH-1R [8] is 4. For the same molecule, in the assay with human MCH-1R [10], the Selectivity 2/1 (MCH-2R/MCH-1R IC50 ratio) worked out at 890. Further, the IC50 in the assay with human MCH-2R [11] stood at 250 nM; with human MCH-1R [12], 0.09 nM.

B1: SEQ. ID. NO. 15 (Δ(X^6-Cys^7), Mpr^7 analog of Ac-hMCH(6-16)-NH2) (peptide)
peptide: XMLGRVYRPC
modifications: Ac-Arg^6 segment eliminated; Mpr, des-amino-cysteine (3-mercaptopropionic acid) at position 7 instead of Cys; C-terminal amide; disulfide ring
Broadly, the EC50 is the concentration at which the effect is half-maximal. Higher therefore signals weaker potency. Regarding B1, the “fold lower activity than Ac-hMCH(6-16)-NH2” value with human MCH-1R [13] was around 30 fold. Besides, in the assay with human MCH-2R [14], the 50% effective concentration (EC50) was above 3000 nM. Also, the results for the “Activation %, aequorin bioluminescence” value with human MCH-1R [15] and with human MCH-2R [16] were 92% and 47%, respectively. Further, the “EC50, aequorin bioluminescence” value amounted to 610 nM in the assay with human MCH-1R [15] and 3100 nM in the assay with human MCH-2R [16]. The “Selectivity 2/1 (MCH-2R/MCH-1R EC50 activity ratio)” value with human MCH-1R [15] was 5 ratio. For the same molecule, the “fold lower binding affinity than Ac-hMCH(6-16)-NH2” value in the assay with human MCH-1R [17] is around 5 fold. Moreover, the IC50 with human MCH-2R [18] is above 3000 nM; in the assay with human MCH-2R [20] it was 3500 nM; in the assay with human MCH-1R [21], 7 nM. Besides, the “Selectivity 2/1 (MCH-2R/MCH-1R IC50 ratio)” value with human MCH-1R [19] came to 500 ratio.
